{
  "source": "paper PMC3897949",
  "target": "PCAF HAT domain (amino acids 493-658), His-tagged (human), Q92831",
  "assay": "SEC-MALS; protein at 2, 6 and 20 mg/ml on a size exclusion column (WTC-010S5); 50 mM phosphate buffer pH 7.0, 150 mM NaCl, 35°C; monomer to dimer",
  "conditions": "remark: other sources report otherwise",
  "data": [
    {"binder": "PCAF HAT domain (amino acids 493-658), His-tagged, Q92831 493-658 (domain or fragment) VIEFHVVGNSLNQKPNKKILMWLVGLQNVFSHQLPRMPKEYITRLVFDPKHKTLALIKDGRVIGGICFRMFPSQGFTEIVFCAVTSNEQVKGYGTHLMNHLKEYHIKHDILNFLTYADEYAIGYFKKQGFSKEIKIPKTKYVGYIKDYEGATLMGCELNPRIPYTE", "values": [
      {"measurement": "stoichiometry N", "result": 2}
    ]}
  ]
}
